The results in this text go back to patent publication US20220227830A1, “QD DOSING OF GIP RECEPTOR AGONIST PEPTIDE COMPOUNDS AND USES THEREOF” (Takeda Pharmaceutical Company Limited, priority 2020, published 2022).

Starred links: 1 amine or outer side, 2 acyl side, 3 side chain; linkers in the order of their positions; H or OH if unused. Non-standard residues stand in square brackets, D forms with d. Groups on a side chain read outwards from the residue. No end group written: not given here. *: point of attachment. 2OEGgEgE‑C15DA = 2OEGgEgE-C15 diacid linker-lipid on the Lys side chain, O=C(O)CCCCCCCCCCCCCC(=O)N[C@@H](CCC(=O)N[C@@H](CCC(=O)NCCOCCOCC(=O)NCCOCCOCC(=O)*)C(=O)O)C(=O)O; C15 diacid = O=C(O)CCCCCCCCCCCCCC(=O)*; γGlu = O=C(O)[C@H](CCC(=O)[*:2])N[*:1]; NMeY = CN[C@@H](Cc1ccc(O)cc1)C(=O)O; AEEA = NCCOCCOCC(=O)O; Aib = CC(C)(N)C(=O)O

The experiment deals with T1, full-length human GIPR with an N-terminal FLAG tag (human, UniProt P48546 22-466).
T1 sequence (looked up): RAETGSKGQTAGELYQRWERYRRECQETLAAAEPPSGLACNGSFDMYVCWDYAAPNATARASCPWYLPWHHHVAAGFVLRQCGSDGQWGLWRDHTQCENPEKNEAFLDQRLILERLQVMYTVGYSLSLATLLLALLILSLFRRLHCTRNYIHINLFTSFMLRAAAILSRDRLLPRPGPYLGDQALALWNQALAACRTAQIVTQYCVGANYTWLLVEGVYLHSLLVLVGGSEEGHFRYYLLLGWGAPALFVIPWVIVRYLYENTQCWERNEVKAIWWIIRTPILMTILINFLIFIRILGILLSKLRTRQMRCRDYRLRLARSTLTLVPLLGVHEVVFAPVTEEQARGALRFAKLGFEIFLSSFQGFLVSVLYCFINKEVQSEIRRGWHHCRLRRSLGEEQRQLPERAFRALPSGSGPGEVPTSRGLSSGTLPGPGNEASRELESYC
Put plainly: cell-based or functional assay.

As to [NMeY][Aib]EGTFISDYSIALDRKAQ[Aib]NFVNWLLAQSPSSGAPPPS-OH (not fully specified (residue 17)) [Compound 54], the “Human GIPR cAMP, HEK293T EC50” value is 0.1 pM.

Turning to Y[Aib]EGTFISDYSI[Aib]KDR[Aib]AQ[Aib]NFVNWLLAQR-NH2 (not fully specified (residues 1, 14)) [Compound 59], the “Human GIPR cAMP, HEK293T EC50” value was 0.4 pM.

In the case of [NMeY][Aib]EGTFISDYSIAK([G5-γGlu-C15 diacid])DR[Aib]AQ[Aib]DFVNWLLAQSPSSGAPPPS-NH2 [Compound 79], the “Human GIPR cAMP, HEK293T EC50” value was 0.2 pM.

B1: Compound 86 (peptide)
peptide: [NMeY][Aib]EGTFISDYSIALDR[Aib]AQ[Aib]K([AEEA-γGlu-γGlu-C15 diacid])FVNWLLAQR-NH2
modifications: N-terminus assumed
SMILES: CC[C@H](C)[C@H](NC(=O)[C@H](CO)NC(=O)[C@H](Cc1ccc(O)cc1)NC(=O)[C@H](CC(=O)O)NC(=O)[C@H](CO)NC(=O)[C@@H](NC(=O)[C@H](Cc1ccccc1)NC(=O)[C@@H](NC(=O)CNC(=O)[C@H](CCC(=O)O)NC(=O)C(C)(C)NC(=O)[C@H](Cc1ccc(O)cc1)NC)[C@@H](C)O)[C@@H](C)CC)C(=O)N[C@@H](C)C(=O)N[C@@H](CC(C)C)C(=O)N[C@@H](CC(=O)O)C(=O)N[C@@H](CCCNC(=N)N)C(=O)NC(C)(C)C(=O)N[C@@H](C)C(=O)N[C@@H](CCC(N)=O)C(=O)NC(C)(C)C(=O)N[C@@H](CCCCNC(=O)COCCOCCNC(=O)CC[C@H](NC(=O)CC[C@H](NC(=O)CCCCCCCCCCCCCC(=O)O)C(=O)O)C(=O)O)C(=O)N[C@@H](Cc1ccccc1)C(=O)N[C@H](C(=O)N[C@@H](CC(N)=O)C(=O)N[C@@H](Cc1c[nH]c2ccccc12)C(=O)N[C@@H](CC(C)C)C(=O)N[C@@H](CC(C)C)C(=O)N[C@@H](C)C(=O)N[C@@H](CCC(N)=O)C(=O)N[C@@H](CCCNC(=N)N)C(N)=O)C(C)C
In the case of B1, the “Human GIPR cAMP, HEK293T EC50” value stood at 1.4 pM.

B2: Compound 111 (peptide)
peptide: [NMeY][Aib]EGTFISDYSI[Aib]LDR[Aib]K(2OEGgEgE‑C15DA)Q[Aib]NFVNWLLAQSPSSGAPPPS-NH2
modifications: N-terminus assumed
SMILES: CC[C@H](C)[C@H](NC(=O)[C@H](Cc1ccccc1)NC(=O)[C@@H](NC(=O)CNC(=O)[C@H](CCC(=O)O)NC(=O)C(C)(C)NC(=O)[C@H](Cc1ccc(O)cc1)NC)[C@@H](C)O)C(=O)N[C@@H](CO)C(=O)N[C@@H](CC(=O)O)C(=O)N[C@@H](Cc1ccc(O)cc1)C(=O)N[C@@H](CO)C(=O)N[C@H](C(=O)NC(C)(C)C(=O)N[C@@H](CC(C)C)C(=O)N[C@@H](CC(=O)O)C(=O)N[C@@H](CCCNC(=N)N)C(=O)NC(C)(C)C(=O)N[C@@H](CCCCNC(=O)COCCOCCNC(=O)COCCOCCNC(=O)CC[C@H](NC(=O)CC[C@H](NC(=O)CCCCCCCCCCCCCC(=O)O)C(=O)O)C(=O)O)C(=O)N[C@@H](CCC(N)=O)C(=O)NC(C)(C)C(=O)N[C@@H](CC(N)=O)C(=O)N[C@@H](Cc1ccccc1)C(=O)N[C@H](C(=O)N[C@@H](CC(N)=O)C(=O)N[C@@H](Cc1c[nH]c2ccccc12)C(=O)N[C@@H](CC(C)C)C(=O)N[C@@H](CC(C)C)C(=O)N[C@@H](C)C(=O)N[C@@H](CCC(N)=O)C(=O)N[C@@H](CO)C(=O)N1CCC[C@H]1C(=O)N[C@@H](CO)C(=O)N[C@@H](CO)C(=O)NCC(=O)N[C@@H](C)C(=O)N1CCC[C@H]1C(=O)N1CCC[C@H]1C(=O)N1CCC[C@H]1C(=O)N[C@@H](CO)C(N)=O)C(C)C)[C@@H](C)CC
Turning to B2, the “Human GIPR cAMP, HEK293T EC50” value stood at 0.4 pM.

B3: Compound 50 (peptide)
peptide: Y[Aib]EGTFISDYSIAKDR[Aib]AQ[Aib]NFVNWLLAQRPSSGAPPPS-OH
modifications: not fully specified (residues 1, 14); also: Me-Tyr methyl position not given here
As to B3, the “Human GIPR cAMP, HEK293T EC50” value amounted to 0.4 pM.
